# Test results as given in article PMC11408249, “Non-invasive in vivo imaging of changes in Collagen III turnover in myocardial fibrosis” (npj Imaging, 2024).
# Residues, ends and D or L forms follow the SMILES beside them. No end group written: not given here. *: point of attachment. DOTA = O=C(O)CN1CCN(CC(=O)O)CCN(CC(=O)*)CCN(CC(=O)O)CC1
# T1: COL3 (Mus musculus, UniProt P08121)
# T1 construct: from tissue; host or cells: infarcted left-ventricular myocardium of female CD1 mice, in vivo
# T1 sequence (P08121 155-1219 limits assumed): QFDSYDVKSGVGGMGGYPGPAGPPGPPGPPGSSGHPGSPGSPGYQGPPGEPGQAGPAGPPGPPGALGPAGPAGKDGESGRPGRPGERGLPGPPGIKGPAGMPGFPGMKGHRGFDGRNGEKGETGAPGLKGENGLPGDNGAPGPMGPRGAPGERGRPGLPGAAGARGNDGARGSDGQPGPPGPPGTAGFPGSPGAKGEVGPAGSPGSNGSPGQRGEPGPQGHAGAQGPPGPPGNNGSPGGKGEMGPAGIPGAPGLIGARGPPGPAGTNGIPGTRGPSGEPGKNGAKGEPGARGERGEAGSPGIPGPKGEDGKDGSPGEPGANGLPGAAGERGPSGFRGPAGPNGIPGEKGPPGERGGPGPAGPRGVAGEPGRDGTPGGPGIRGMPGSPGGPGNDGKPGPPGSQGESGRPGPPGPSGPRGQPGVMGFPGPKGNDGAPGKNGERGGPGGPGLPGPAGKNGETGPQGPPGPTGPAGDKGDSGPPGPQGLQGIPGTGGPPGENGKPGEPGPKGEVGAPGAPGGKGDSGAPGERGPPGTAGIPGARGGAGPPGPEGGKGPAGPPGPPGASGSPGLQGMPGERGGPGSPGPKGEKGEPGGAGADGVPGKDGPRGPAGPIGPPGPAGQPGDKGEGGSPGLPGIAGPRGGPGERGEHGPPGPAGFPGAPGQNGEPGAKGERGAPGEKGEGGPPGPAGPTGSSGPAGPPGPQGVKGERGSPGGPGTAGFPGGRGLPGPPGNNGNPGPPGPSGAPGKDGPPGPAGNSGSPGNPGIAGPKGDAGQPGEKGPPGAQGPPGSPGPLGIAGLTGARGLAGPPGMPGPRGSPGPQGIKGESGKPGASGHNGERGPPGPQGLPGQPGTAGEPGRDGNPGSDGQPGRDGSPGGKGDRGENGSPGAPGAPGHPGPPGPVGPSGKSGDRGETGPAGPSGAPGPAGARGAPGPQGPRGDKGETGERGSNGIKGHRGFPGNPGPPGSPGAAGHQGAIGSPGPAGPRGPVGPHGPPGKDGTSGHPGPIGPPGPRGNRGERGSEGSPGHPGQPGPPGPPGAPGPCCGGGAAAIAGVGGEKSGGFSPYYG
# T2: Collagen type III (COL3) (Homo sapiens, UniProt P02461)
# T2 chain: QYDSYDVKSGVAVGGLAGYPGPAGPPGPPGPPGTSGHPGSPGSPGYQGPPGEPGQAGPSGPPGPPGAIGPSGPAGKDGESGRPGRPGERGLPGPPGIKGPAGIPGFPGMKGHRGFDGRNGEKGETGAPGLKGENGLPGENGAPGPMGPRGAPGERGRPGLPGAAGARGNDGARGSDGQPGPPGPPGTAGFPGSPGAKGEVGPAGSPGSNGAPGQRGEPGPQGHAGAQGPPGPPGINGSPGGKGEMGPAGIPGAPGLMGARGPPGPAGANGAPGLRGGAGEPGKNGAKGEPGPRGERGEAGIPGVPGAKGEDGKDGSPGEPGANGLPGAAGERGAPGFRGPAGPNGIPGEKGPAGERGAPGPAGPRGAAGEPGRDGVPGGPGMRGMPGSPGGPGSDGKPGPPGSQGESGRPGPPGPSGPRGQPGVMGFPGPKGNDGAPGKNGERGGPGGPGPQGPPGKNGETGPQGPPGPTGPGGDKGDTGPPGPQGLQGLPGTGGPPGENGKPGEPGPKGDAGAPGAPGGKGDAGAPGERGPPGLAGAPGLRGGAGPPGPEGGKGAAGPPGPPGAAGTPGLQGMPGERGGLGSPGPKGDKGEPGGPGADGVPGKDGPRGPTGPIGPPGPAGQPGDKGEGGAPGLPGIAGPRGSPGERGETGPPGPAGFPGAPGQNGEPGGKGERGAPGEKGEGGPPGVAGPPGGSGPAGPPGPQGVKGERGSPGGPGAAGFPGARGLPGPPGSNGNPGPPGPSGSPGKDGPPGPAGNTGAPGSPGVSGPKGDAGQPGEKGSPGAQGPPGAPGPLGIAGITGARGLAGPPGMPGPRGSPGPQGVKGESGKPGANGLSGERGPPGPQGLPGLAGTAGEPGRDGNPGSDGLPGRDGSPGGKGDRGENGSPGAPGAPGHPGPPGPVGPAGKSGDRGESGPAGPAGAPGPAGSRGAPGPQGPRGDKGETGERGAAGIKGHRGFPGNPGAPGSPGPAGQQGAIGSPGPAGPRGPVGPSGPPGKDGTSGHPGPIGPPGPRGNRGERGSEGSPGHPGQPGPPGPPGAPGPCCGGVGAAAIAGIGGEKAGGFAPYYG
# B1: Eu-DOTAMA-CBP1 (peptide)
# chain: DARKSEVQK
# modifications: not fully specified (N-terminus); also: Eu complexed by N-terminal DOTAMA
# B2: Eu-DOTAMA-CBP2 (peptide)
# chain: TEFPLRMRDWLKN
# modifications: not fully specified (N-terminus); also: Eu complexed by N-terminal DOTAMA
# Key:
# [1] = set-up: species or system mice; details: mouse, in vivo, iv
# Method: Gallium-68 (^68Ga) was eluted from the generators onsite at the time of the experiments. Radiolabelling of the respective DOTAMA-CBP compound was performed as follows: DOTAMA-CBPs were dissolved in water (Baxter water for irrigation) to a final concentration 4 mg/mL. In an Eppendorf, 25 µL of the DOTAMA-CBP solution was added. Sodium acetate (30%NaOAc, 20 µL, pH 5) buffer was added to this solution followed by the addition of 200 µL ^68Ga (~100 MBq). The solution was then heated to 50 °C for 30 min. After the reaction was removed from heat, the pH was adjusted to pH 7 by adding sodium bicarbonate (1 M, 10 µL). Labelling efficiency was followed by radio thin-layer chromatography (TLC) and HPLC. Radio TLCs were performed using silica gel IBF-2 Baker plates, 10% NH4OAc 50:50 in MeOH with 5 µL of the sample added. For the HPLC, a C18 column was used (MeCN + 0.1% TFA and H2O + 0.1% TFA, gradient) with 10 µL of the sample measured.
# In vivo biodistribution imaging was carried out using a positron emission tomography/computed tomography (PET/CT) scanner (NanoPET/CT scanner; Mediso, Hungary. Male apolipoprotein E knockout (ApoE^−/−) were anesthetised with 4% isoflurane mixed with 1% medical oxygen and maintained at 2% isoflurane for the PET/CT experiment. Mice were injected intravenously (i.v.) with either ^68Ga-DOTAMA-CBP1 or ^68Ga-DOTAMA-CBP2 (12MBq/mouse for both probes). To verify anatomical structures, CT images were obtained after the PET imaging with a 55 kVp voltage. PET images were acquired continuously up to 90 min post-injection with a 256 × 256 matrix size and a resolution of 1 mm/pixel. PET and CT images were reconstructed using the manufacturer software with a voxel size of 0.4 mm and analysed with a VivoQuant 2.5 software (Invicro, Boston, MA, USA). The data acquired with the CBP1 and CBP2 imaging probes were reconstructed in 15-minute bins up to 90 min. The PET/CT images were merged using the software’s automated fusion function. Additionally, the software was used for region-of-Interest (ROI) analysis and results were reported as %ID/g for each organ. Following the in vivo PET/CT imaging, the animals were euthanised and tissues extracted for ex vivo gamma counting (1282 CompuGamma gamma counting, LKB Wallac, Finland).
# [2] = system: COL3 remodelling; assay: Enalapril treatment after myocardial infarction, read out by COL3 molecular CMR and cine MRI; type: in vivo, mice
# [3] = molecular target: T1, COL3; assay: In vivo MRI of the aortic wall in a murine model of vascular remodelling; details: ApoE−/− mice after aortic injury and 12 weeks high-fat diet, i.v. 0.2 mmol/kg, LGE MRI at 3 T up to 2 h post-injection
# From the text: Male ApoE^−/− mice were bred in-house and underwent surgery at 8–10 weeks of age (n = 6). Mice were anesthetised with 4% isoflurane mixed with 1% medical oxygen and anaesthesia was maintained at 2% during the surgery as previously reported. Briefly, mice underwent a laparotomy to expose the abdominal aorta, renal and iliac arteries. Two ligatures were inserted around the aorta (surgical silk, size 4–0, Aragó, Zaragoza, Spain), the first below the renal arteries and the second above the iliac bifurcation. A 30 G needle was introduced into the abdominal aorta at the level of the iliac bifurcation, via an aortic puncture. 1 mL of saline was infused into the aorta in three boluses. Finally, the needle was removed, and the puncture was repaired. The muscle and skin incisions were sutured (5-0 Vicryl, Ethicon Inc, Somerville, NJ), and the animals were allowed to recover. Mice were switched to a high-fat diet (HFD) containing 21% fat from lard and 0.15% (wt/wt) cholesterol (Special Diets Services, Witham, United Kingdom), on day 2 post-surgery for 12 weeks prior to the imaging experiments.
# Anaesthesia was induced with 4% and maintained with 1–2% isoflurane during the MRI experiments. Mice (n = 3 per group) were placed supine on a single-loop surface coil (diameter = 47 mm) and the abdominal aorta was imaged up to 2 h post-injection of the monomeric (i.v. 0.2 mmol/kg, 0.2 mmol/kg Gd), the next day with the corresponding tetrameric collagen-binding probe (i.v 0.2 mmol/kg, 0.8 mmol/kg Gd) and the 3rd day using the scrambled probes (n = 2–3 per probe; i.v. 0.2 mmol/kg). This timeline ensures complete washout of one probe from the tissue before the administration of another probe. […]
# [4] = molecular target: T2, Collagen type III (COL3); assay: Eu(III) time-resolved fluorescence plate assay
Kd [4] [µM],Molecule,route of elimination (in words) [1],time within which most of the probe is eliminated from the blood (first phase clearance) [1] [min],unspecific uptake in tissues (in words) [1],further results
,"CC(C)[C@H](NC(=O)[C@H](CCC(=O)O)NC(=O)[C@H](CO)NC(=O)[C@H](CCCCN)NC(=O)[C@H](CCCNC(=N)N)NC(=O)[C@H](C)NC(=O)[C@H](CC(=O)O)NC(=O)CN1CCN(CC(=O)O)CCN(CC(=O)O)CCN(CC(=O)O)CC1)C(=O)N[C@@H](CCC(N)=O)C(=O)N[C@@H](CCCCN)C(=O)O [^68Ga-DOTAMA-CBP1, metal not drawn] ({DOTA}-DARKSEVQK-OH)",renal excretion,15 to 30,no significant unspecific uptake in tissues,
,"CSCC[C@H](NC(=O)[C@H](CCCNC(=N)N)NC(=O)[C@H](CC(C)C)NC(=O)[C@@H]1CCCN1C(=O)[C@H](Cc1ccccc1)NC(=O)[C@H](CCC(=O)O)NC(=O)[C@@H](NC(=O)CN1CCN(CC(=O)O)CCN(CC(=O)O)CCN(CC(=O)O)CC1)[C@@H](C)O)C(=O)N[C@@H](CCCNC(=N)N)C(=O)N[C@@H](CC(=O)O)C(=O)N[C@@H](Cc1c[nH]c2ccccc12)C(=O)N[C@@H](CC(C)C)C(=O)N[C@@H](CCCCN)C(=O)N[C@@H](CC(N)=O)C(=O)O [^68Ga-DOTAMA-CBP2, metal not drawn] ({DOTA}-TEFPLRMRDWLKN-OH)",renal excretion,15 to 30,no significant unspecific uptake in tissues,
,CCOC(=O)[C@H](CCc1ccccc1)N[C@@H](C)C(=O)N1CCC[C@H]1C(=O)O [enalapril],,,,"volume of signal enhancement (LGE volume) at day 21 versus untreated mice (in words) ([2]; enalapril 20 mg/kg/day in drinking water after MI, imaged with [Gd-DOTAMA]4-CBP1, n = 7 per group): significantly higher volume of signal enhancement; cardiac geometry and function versus untreated mice (in words) ([2]; enalapril 20 mg/kg/day in drinking water, cine MRI, days 10 and 21 post-MI): no significant differences"
,"Ac-C-EWFMKDRLLNRPT [[Gd-DOTAMA]4-SccCBP2, scrambled tetrameric Gd probe (Ac-C-…), negative control]",,,,signal enhancement of the remodelled aortic wall (in words) [3]: also showed signal enhancement
5.3,B1,,,,
4.8,B2,,,,
